{"source": "patent US20240245805A1", "about": "(Orna Therapeutics, Inc., priority 2020, published 2024)", "data": [{"test_system": "HEK293 cells", "assay_type": "cell-based, human", "conditions": "circular RNA encoding Gluc with the listed IRES (UTR truncated to 675 nt) transfected into HEK293 cells; supernatant after 24 hours", "values": [{"molecule": "Simian Sapelovirus 2 (nucleic acid, listed as Sapelovirus sp.) DNA: TTTTAACTTGTTATGACATTCAAGGAAAAAATGTCTTTTTCATTATGGGACTGACCTGTTTATGAACATGAGCAGCGGCACTGCTCCACGGGCTATCCGTGTAAGAAATATTGATTATTCTTATGGATCATGATTTCAGGGTTGGCCGCCCAGTCTAAAAGGCAATTGTGGTAAGCTATGTAAGTAGTTGGCTGTTGAAAGGAGCCAAGTACATCCTAGGTCTACGCTGTGCGGGCCGAAGTAAGACTTGGAACAACTCTGAGTAGGCAGTTTTTCTCTTTAGCCCAACACGACCGCATACTGAAGAGCTAGAGGCACTTTGGGGCAAAGGTAAAAGCATTGCTTAGACCGAATGTTCAATGAGACCTTGACGAGTGCTGTCACAGTGTCCCCTGATGGCAGTATGGCGCATGCTCTTGGCATTACCCATATGTGTATCTATAGGGGGGGGGCCCCCTATACTTAGTCTAGTGCTACCTGACAGGGCCGCGGCTGGTCGTCGGTGTGTGGTATAACCAGTAGTAATCCCCCATGGATTGCTTTAACTCCCCCTCCTCCCTCAACAAAACTTTCTCTAAG", "Expression (luminescence from secreted Gluc protein)": "4.24E+07"}, {"molecule": "Simian Sapelovirus 1 (nucleic acid, listed as Sapelovirus sp.) DNA: CCAAGGATCTGTTGCATAGGCGTTGTATCCCCTAACCTTTTACCTACCCATCCCAATAGGACTGGTATTTCGGTTTTGATTGAGTAATGGATACTGATTCTATACCTGTTACCCATTCAGGGGAAAAATGGAGTTTCTTTCATGGATCTGACTTGATATGACCAAGAGTCAACACTTTGCGTGTTGGCCGTATGGAATGCTTTAAGGTTTATTCTTTGGATTATGACTTCAGGGTTGGCCGCCCAGGATAAAAGGCAATTGTGGTAAGTGATGTTAGTCATTGGTGGTTGAAACCTGCCTAAGACGTCCTAGGTCTACGCTGTGCGGGCCGAAGTAAGCTTAGGAATAACAGGGAGTATGCCATTTTCTGCTTTCACCCAACACGACCGTACACGAAAGAGCTAGAGGCACTTTGGGGCAAAGGGAAAAGCTTTGCTTAGCCCGAATGTTCATTTGAGTCCTTGACGAATGCGTCCCGTCTGTCCCGACGGTGAGGCGTATGGCGCATGCTCATGGCATTACCCAATGGTGTATCTGTGAGGGGGGGGCTCCTCACACTTAGTCTAGTGCTACCTGACAGGGCCGCGGCTGGTCGTTTGTGTATGGTATAACCAGTAGTAATCCCCCATGGATTGCTTTAACTTCCCCTCCTCCCTTACCAAGACATTCTCTAAG", "Expression (luminescence from secreted Gluc protein)": "6.55E+07"}, {"molecule": "Parechovirus C (nucleic acid, lipid formulation; Parechovirus C) DNA: CGGTCATCCCCCTTTCCCCACAGCCGGTGTGGGTTCTAATCGGCTCCTACTAAACACCTAAGCATCACTGCGCCTCTATCTCTCCTATCCACAGGTCTAAGACGCTTGGAATAAGACATGTGGGTGCAATAGGAAGATTAGCTAGTCCAATCTCTCCTTCCAGCTACGCTTCTCCCTTCGATGAGCGTAGGGGGGGCCCCCACCTCCCTCATCTCTGGATAGGGCTCTTGCTACGGGGCTTTCCCGTCTGGACCAGCAGGCCCACTGGTGCGCTTCCATTCAAGTTTAGTGTGCATTACTGTCTGAAATATTGCTTTGCTAGGATCTAGTGTAGCGACCTGCATATTGCCAGCGGACTTCCCCACATGGTAACATGTGCCTCTGGGCCCAAAAGGCATGTCTTTGACCGTATGCAGTACAACCCCAGTATAGGTCCTTTCTATGGCAGTATGGATCTCAGTGATGAGTCTATACAGAATATGGAAGTGGTTCGGATATGTCAGCCCGAAGGATGCCCAGAAGGTACCCGCAGATAACCTTAAGAGACTGTGGATCTGATCTGGGGCCCACCACCTTCGGGTGGGTAGAAGCTAACCATGCCTTGGGTTAAAAAACGTCTAAGGGCTGACCAGACCCGGGGGATCCGGGTTTTCCCTATCTTGACCTACTCTAATC", "Expression (luminescence from secreted Gluc protein)": "1.24E+06"}, {"molecule": "Rabovirus A NYC-B10 (nucleic acid, lipid formulation; Rabovirus A) DNA: CCGACCCCACTGGTCGAAGGCCACTTGGCAATAAGACTGGTGGAACAAGGTCGCCTGTAGTTGATTGGAACCTTCTTTCTAATGACTTATGTCAGCGGTGCTACTCACACCGTAACTCTCCTACCCTATCCCCACGCTTGTGGAACTAGGAGGGGATGAGTGATTCAAGTAAGTACTGTCAGAATGGTGAAAATAATCTGATTCTGAAACGCTATGGATCCATCGAAAGATGGGGCTACACGCCTGCGGAACAACACATGGTAACATGTGCCCCAGGGGCCGAAAGCCACGGTGATAGGATCACCCGTGTAGTTTGAGATCATATCAATGTTCATAGTCTAGTAAGATGATTTGAAATCTAACTGGTCTGATGGCTAACTGCTTGTCTTATTGCGGCCTAAGGATGTCCTGCAGGTACCTTTAGAGAACCTTAAGAGACTATTGATCTGAGCAGGAGCCAAGGTGGTCTTTCCCAGCCTTGGTTAAAAAGCGTCTAAGCCGCGGCAGGGGGCGGGAGGCCCCCTTTCCTCCCAAACTATAATATAGATTGT", "Expression (luminescence from secreted Gluc protein)": "1.24E+06"}, {"molecule": "Felipivirus 127F (nucleic acid, listed as Felipivirus sp.) GATGTCGGATGACGGCTGGCCACCGGGGAAAAACGGCAAATGTGCACCACCTCTGCAACCCACGCCGACCACGTTTAACCATGGCGTTAGTAGGAGTGGACCACTGCAGTGGGCTCTGGTGTGCGACAGTCAGTGGTAGAGTAGACAGTCCTGACTGGGCAATGGGACCGCGTTGCGTATCCCTAGGTGGCATCGAGATTCCTCTGCTACCCACCAGCGTGGACTCCTATGGGGGGGGCCCCATAGGCTAGGTCTATACTGCCTGATAGGGTCGCGGCTGGTCGACCACTGACTGTATAACCAGTTGTAACTCACT", "Expression (luminescence from secreted Gluc protein)": "8.92E+06"}, {"molecule": "Parabovirus C (nucleic acid, lipid formulation; Parabovirus C) DNA: GATGTATCCCCATCCCCCAGTGTGTATGCCATACTGCATAGCTCGCCTATGCCCTATGGATTCACAACCCTTTCATATACCCTCCCTACCCAACCCCGTAACCACATGCTTTACTCCGCTTGGGGTTTTGCGGCCCCATGTTGTGACGAAATGGCTACGCAATCAATGCGGCTAATGGGGCCTGCCGCTTTTAAGTGGCCCCAGTTAGAAGTTTATGCACACCCGCCCATTAGGAGGCCACCAGCCAGGTGGTCAGAGGGCAAGCACTTCTGTTTCCCCGGTGAAGTTTGATAAGCTGTGCCCACGGCTGAAGCAGACAGATCCGTTACCCGCCTCACTACTACGAGACGGCTAGTAGTGTGTAATATCCGAATTTCATTGATCCGGGTGTTCCCCCCACCCAGAAACGTGTGATGAGGAGCGGCACCCCTCCTATGGCAACATAGGGCCTCTCCTGCGCTGGCACACGGGCTCTATGAGCATGAAATCAGGAGAAAGTCACACGAAGACCTTATTGTGCTAGTGTTGATTCCTCCGCCCCCCTGAATGCGGCTAATCCCAACTCCGGAGCGCCCGCTGGCAAACCCGCCAGAAGAGCGTCGTAATGCGTAAGTCTGGAGCGGAACCGACTACTTTGGGTGTGGCGTGTTTCCTTTATTTCCTTTGTATTTGTAT", "Expression (luminescence from secreted Gluc protein)": "1.83E+07"}]}]}
